Laboratory results published in patent US10562947B2, “Compositions and methods for preventing or treating diseases, conditions or processes characterized by aberrant fibroblast proliferation and extracellular matrix deposition” (MOERAE MATRIX, INC., priority 2011, dated 2020).
Where a SMILES comes first, the peptide text is derived from it.

Assays:
[1] = target: cKit(V560G)(h) (Homo sapiens, UniProt P10721, V560G); assay: Kinase Profiling Assay; assay type: biochemical; conditions: 100 μM peptide
In short: (§1)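 Specificity of the MK2-directed peptides is examined by measuring activity of 266 human kinases, every determination performed in duplicate.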

[2] = target: T1, IRAK1(h) (Homo sapiens, UniProt P51617); assay: Kinase Profiling Assay; assay type: biochemical; conditions: 100 μM peptide
T1 construct: purchased Millipore
T1 sequence (P51617 whole entry): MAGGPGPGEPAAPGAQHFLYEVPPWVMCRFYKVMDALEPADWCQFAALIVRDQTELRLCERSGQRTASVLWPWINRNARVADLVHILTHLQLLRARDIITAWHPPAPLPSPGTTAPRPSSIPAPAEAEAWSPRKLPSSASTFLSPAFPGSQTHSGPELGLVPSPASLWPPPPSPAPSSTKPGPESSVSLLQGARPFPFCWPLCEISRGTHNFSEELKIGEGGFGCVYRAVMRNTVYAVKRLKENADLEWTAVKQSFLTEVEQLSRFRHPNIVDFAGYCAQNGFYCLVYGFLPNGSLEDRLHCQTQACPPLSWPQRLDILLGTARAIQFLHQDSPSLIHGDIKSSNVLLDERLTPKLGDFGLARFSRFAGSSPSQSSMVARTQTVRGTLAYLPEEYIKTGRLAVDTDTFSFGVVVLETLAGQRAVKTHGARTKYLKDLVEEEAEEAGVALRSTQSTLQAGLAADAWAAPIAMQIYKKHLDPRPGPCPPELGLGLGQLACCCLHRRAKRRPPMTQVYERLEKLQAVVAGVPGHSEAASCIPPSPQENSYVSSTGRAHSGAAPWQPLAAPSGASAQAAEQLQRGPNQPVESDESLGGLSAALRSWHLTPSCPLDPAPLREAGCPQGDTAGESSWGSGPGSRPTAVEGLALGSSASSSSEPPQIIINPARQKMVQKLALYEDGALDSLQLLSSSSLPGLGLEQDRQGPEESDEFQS
In short: as §1

[3] = target: T2, PKCμ(h) (Homo sapiens, UniProt Q15139); assay: Kinase Profiling Assay; assay type: biochemical; conditions: 100 μM peptide
T2 construct: purchased Millipore (IC50 Profiler Express service)
T2 sequence (Q15139 1-912): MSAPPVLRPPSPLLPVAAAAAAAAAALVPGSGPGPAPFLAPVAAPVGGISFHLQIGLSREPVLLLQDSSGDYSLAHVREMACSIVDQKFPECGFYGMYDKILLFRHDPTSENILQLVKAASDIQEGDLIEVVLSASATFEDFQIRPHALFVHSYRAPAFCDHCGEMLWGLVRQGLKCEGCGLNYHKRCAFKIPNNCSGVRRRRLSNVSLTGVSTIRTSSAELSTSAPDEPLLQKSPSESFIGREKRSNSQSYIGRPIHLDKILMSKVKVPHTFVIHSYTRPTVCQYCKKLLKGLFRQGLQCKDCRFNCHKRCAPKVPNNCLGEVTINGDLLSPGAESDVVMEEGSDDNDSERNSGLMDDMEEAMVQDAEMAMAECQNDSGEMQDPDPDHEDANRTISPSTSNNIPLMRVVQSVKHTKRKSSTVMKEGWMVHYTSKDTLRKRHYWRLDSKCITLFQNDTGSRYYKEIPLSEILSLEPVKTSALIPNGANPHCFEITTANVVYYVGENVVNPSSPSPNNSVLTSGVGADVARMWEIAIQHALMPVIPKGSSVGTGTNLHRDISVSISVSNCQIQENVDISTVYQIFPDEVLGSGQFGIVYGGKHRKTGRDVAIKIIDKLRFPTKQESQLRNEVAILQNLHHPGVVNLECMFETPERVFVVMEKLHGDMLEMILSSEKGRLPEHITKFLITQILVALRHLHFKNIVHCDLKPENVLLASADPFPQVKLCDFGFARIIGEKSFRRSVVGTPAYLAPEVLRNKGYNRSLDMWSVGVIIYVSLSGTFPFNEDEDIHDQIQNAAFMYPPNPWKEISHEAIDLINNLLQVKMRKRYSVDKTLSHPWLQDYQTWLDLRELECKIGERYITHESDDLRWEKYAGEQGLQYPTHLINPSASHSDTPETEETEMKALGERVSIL
In short: as §1

[4] = target: PKA(h) (Homo sapiens, UniProt P17612); assay: Kinase Profiling Assay; assay type: biochemical; conditions: 100 μM peptide
In short: as §1

[5] = target: Abl(H396P)(h) (Homo sapiens, UniProt P00519, H396P); assay: Kinase Profiling Assay; assay type: biochemical; conditions: 100 μM peptide
In short: as §1

[6] = target: JNK2α2(h) (Homo sapiens, UniProt P45984); assay: Kinase Profiling Assay; assay type: biochemical; conditions: 100 μM peptide
In short: as §1

[7] = target: T3, BrSK1(h) (Homo sapiens, UniProt Q8TDC3); assay: Kinase Profiling Assay; assay type: biochemical; conditions: 100 μM peptide
T3 sequence (Q8TDC3 1-778): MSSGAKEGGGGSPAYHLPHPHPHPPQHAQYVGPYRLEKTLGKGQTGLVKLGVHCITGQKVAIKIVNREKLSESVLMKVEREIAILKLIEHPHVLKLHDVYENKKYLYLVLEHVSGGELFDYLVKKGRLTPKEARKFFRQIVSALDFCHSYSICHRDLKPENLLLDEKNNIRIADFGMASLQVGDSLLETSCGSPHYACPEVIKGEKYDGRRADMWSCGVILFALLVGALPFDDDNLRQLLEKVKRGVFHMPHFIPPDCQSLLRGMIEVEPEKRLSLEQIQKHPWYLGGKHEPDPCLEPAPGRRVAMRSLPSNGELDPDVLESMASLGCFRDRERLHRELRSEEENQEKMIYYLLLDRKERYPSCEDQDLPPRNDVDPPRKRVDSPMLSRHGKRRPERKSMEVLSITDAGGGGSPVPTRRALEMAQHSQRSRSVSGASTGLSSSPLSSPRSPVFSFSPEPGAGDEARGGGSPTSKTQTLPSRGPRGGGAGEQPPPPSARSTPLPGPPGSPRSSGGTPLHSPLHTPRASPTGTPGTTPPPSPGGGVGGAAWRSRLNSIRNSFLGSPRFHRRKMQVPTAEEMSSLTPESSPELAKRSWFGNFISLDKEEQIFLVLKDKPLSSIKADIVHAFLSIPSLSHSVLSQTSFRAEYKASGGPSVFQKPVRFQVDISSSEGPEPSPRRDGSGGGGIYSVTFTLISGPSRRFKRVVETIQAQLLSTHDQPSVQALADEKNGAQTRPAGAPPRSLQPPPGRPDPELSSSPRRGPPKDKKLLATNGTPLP
In short: as §1

[8] = target: T4, HIPK3(h) (Homo sapiens, UniProt Q9H422); assay: Kinase Profiling Assay; assay type: biochemical; conditions: 100 μM peptide
T4 construct: purchased Millipore
T4 sequence (Q9H422 whole entry): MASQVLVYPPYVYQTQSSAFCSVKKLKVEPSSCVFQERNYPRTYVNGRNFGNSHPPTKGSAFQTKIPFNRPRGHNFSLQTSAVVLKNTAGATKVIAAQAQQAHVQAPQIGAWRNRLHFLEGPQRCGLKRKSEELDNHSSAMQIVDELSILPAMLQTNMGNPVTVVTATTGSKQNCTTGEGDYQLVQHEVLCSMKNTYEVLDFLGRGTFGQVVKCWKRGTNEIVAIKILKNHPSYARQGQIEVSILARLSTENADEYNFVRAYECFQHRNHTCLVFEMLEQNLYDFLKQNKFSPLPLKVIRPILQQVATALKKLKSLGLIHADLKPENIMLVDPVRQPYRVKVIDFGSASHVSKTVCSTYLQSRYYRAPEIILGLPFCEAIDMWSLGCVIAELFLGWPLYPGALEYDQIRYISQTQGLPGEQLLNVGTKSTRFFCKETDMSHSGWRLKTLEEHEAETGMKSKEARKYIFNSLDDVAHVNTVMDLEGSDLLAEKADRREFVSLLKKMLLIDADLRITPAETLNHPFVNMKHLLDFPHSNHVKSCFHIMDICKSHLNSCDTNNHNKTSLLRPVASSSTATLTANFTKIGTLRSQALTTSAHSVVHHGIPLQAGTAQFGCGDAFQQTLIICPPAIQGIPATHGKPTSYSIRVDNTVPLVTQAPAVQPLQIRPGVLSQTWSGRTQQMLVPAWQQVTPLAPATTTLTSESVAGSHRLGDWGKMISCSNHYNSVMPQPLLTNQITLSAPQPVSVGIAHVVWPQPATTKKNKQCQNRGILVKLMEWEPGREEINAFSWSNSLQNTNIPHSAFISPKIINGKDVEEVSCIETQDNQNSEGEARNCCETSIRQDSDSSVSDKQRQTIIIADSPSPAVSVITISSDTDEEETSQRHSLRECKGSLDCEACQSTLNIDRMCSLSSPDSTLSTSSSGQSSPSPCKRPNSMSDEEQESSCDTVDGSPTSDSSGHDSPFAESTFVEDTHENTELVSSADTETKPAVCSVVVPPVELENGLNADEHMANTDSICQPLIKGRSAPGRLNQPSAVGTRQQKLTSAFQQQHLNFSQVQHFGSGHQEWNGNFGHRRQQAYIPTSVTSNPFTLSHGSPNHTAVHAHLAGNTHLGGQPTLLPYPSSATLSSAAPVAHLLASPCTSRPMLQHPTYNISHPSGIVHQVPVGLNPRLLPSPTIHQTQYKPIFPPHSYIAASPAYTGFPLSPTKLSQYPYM
In short: as §1

[9] = target: T5, GRK5(h) (Homo sapiens, UniProt P34947); assay: Kinase Profiling Assay; assay type: biochemical; conditions: 100 μM peptide
T5 construct: purchased Millipore
T5 sequence (P34947 whole entry): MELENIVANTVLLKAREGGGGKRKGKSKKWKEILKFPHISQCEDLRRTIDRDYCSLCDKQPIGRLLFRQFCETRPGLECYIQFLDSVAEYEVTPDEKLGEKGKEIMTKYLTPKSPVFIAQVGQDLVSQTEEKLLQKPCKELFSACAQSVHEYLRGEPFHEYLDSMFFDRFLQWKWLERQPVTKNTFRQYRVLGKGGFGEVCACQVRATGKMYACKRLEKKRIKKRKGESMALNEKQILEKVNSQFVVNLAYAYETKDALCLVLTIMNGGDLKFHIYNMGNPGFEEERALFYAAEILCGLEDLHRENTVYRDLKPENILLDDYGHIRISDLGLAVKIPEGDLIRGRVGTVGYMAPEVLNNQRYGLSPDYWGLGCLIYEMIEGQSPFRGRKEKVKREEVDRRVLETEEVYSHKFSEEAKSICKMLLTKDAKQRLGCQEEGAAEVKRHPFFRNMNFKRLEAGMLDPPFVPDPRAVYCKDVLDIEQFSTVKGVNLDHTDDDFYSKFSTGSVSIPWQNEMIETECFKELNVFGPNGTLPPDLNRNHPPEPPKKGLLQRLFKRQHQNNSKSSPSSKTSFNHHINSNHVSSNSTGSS
In short: as §1

[10] = target: Tie2(R849W)(h) (Homo sapiens, UniProt Q02763, R849W); assay: Kinase Profiling Assay; assay type: biochemical; conditions: 100 μM peptide
Sequence of Tie2(R849W)(h) (Q02763 23-1124 R849W): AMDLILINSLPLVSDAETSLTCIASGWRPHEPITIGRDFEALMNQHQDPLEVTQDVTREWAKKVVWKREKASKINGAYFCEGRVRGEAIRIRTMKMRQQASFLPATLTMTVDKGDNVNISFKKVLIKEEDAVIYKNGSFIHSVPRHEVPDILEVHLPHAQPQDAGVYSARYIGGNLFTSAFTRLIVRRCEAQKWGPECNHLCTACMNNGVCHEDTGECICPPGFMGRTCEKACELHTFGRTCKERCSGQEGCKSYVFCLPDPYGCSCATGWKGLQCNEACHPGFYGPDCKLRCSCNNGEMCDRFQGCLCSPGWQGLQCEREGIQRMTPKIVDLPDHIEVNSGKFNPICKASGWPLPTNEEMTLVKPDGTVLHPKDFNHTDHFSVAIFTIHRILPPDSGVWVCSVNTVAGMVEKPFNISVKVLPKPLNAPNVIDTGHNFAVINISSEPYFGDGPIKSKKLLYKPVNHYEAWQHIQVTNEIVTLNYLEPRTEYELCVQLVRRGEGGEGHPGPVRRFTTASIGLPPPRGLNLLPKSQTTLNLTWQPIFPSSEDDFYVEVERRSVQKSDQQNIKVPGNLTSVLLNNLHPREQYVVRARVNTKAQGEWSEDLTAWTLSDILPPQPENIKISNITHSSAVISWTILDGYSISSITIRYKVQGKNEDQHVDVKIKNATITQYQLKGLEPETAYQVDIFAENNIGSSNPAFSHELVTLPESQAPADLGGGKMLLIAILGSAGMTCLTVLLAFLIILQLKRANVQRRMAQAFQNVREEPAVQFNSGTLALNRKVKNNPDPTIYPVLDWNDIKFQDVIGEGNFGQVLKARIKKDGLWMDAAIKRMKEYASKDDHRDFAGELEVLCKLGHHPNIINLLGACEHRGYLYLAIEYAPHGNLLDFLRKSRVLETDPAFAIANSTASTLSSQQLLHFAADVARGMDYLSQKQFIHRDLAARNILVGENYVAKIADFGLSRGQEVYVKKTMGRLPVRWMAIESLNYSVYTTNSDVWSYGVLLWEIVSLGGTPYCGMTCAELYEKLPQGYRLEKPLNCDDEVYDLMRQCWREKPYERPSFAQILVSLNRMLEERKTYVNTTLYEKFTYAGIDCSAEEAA
In short: as §1

[11] = target: T6, MKK7β(h) (Homo sapiens, UniProt O14733); assay: Kinase Profiling Assay; assay type: biochemical; conditions: 100 μM peptide
T6 sequence (O14733 1-419): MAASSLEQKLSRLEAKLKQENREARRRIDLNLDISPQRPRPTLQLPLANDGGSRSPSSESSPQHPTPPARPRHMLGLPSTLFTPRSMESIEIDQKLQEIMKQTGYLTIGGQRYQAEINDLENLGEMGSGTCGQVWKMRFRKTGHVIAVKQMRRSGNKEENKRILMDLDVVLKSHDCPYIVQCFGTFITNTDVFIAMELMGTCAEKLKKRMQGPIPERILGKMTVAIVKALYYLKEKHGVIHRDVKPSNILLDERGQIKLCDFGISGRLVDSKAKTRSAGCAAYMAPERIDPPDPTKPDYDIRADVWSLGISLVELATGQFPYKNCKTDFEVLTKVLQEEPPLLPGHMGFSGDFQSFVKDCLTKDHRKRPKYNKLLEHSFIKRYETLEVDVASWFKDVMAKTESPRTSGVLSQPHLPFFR
In short: as §1

[12] = tested on: human fetal lung fibroblasts (IMR-90); assay: TGF-β-mediated fibronectin expression in IMR-90 cells; assay type: cell-based; conditions: 1 h pre-treatment, TGF-β1 2 ng/ml 72 h
Method: Fibronection was measured as secreted fragments in the conditioned media. Equal amounts (14 μg) of total proteins from the conditioned media were loaded in each lane.

With “HRRIKAWLKKIKALARQLGVAA (Mammalian) [MMI-0500]” the “cKit(V560G)(h) % activity” value [1] was 198%, the “IRAK1(h) % activity” value [2] was 5% and the “PKCμ(h) % activity” value [3] was 10%. For the same molecule, the “PKA(h) % activity” value [4] was 118%, the “Abl(H396P)(h) % activity” value [5] was 51% and the “JNK2α2(h) % activity” value [6] was 81%. For the same molecule, the “BrSK1(h) % activity” value [7] was 72% and the “HIPK3(h) % activity” value [8] was 85%.
KAFAKLAARLYRKALARQLGVAA [MMI-0400] was tested, and the “GRK5(h) % activity” value [9] was 131%, the “cKit(V560G)(h) % activity” value [1] was 124% and the “IRAK1(h) % activity” value [2] was 93%. The “PKCμ(h) % activity” value [3] was 14%, the “JNK2α2(h) % activity” value [6] was 96% and the “Tie2(R849W)(h) % activity” value [10] was 108%. For the same molecule, the “BrSK1(h) % activity” value [7] was 76% and the “MKK7β(h) % activity” value [11] was 94%.
FAKLAARLYRKALARQLGVAA [MMI-0300] was tested, and the “IRAK1(h) % activity” value [2] was 95%, the “PKCμ(h) % activity” value [3] was 22% and the “Abl(H396P)(h) % activity” value [5] was 101%. For the same molecule, the “JNK2α2(h) % activity” value [6] was 98%, the “BrSK1(h) % activity” value [7] was 67% and the “HIPK3(h) % activity” value [8] was 93%. The “MKK7β(h) % activity” value [11] was 100%.
In the case of “YARAAARQARAKALNRQLGVA (Mammalian) [MMI-0200]”, the “GRK5(h) % activity” value [9] is reported as 135%, the “IRAK1(h) % activity” value [2] is reported as 101% and the “PKCμ(h) % activity” value [3] is reported as 73%. The “PKA(h) % activity” value [4] was 110%, the “Tie2(R849W)(h) % activity” value [10] was 89% and the “BrSK1(h) % activity” value [7] was 93%. The “protein level of fibronectin (conditioned media)” value [12] was “no changes in the protein level”.
With `CC(C)C[C@H](NC(=O)[C@H](C)NC(=O)[C@H](CCCCN)NC(=O)[C@H](C)NC(=O)[C@H](CCCNC(=N)N)NC(=O)[C@H](C)NC(=O)[C@H](CCC(N)=O)NC(=O)[C@H](CCCNC(=N)N)NC(=O)[C@H](C)NC(=O)[C@H](C)NC(=O)[C@H](C)NC(=O)[C@H](CCCNC(=N)N)NC(=O)[C@H](C)NC(=O)[C@@H](N)Cc1ccc(O)cc1)C(=O)N[C@@H](C)C(=O)N[C@@H](CCCNC(=N)N)C(=O)N[C@@H](CCC(N)=O)C(=O)N[C@@H](CC(C)C)C(=O)NCC(=O)N[C@H](C(=O)N[C@@H](C)C(=O)N[C@@H](C)C(=O)O)C(C)C` [MMI-0100] (H-YARAAARQARAKALARQLGVAA-OH; N-terminus and C-terminus assumed) the “protein level of fibronectin (conditioned media)” value [12] was “decreases in the levels”.
